In patent publication US20140242093A1, “METHODS AND COMPOSITIONS FOR MODULATING THE INNATE IMMUNE RESPONSE AND/OR MYOGENESIS IN A MAMMALIAN SUBJECT” (FRED HUTCHINSON CANCER RESEARCH CENTER, priority 2011, published 2014):

Test system: control human primary myoblasts
Experiment: Expression microarray of primary myoblasts transduced with lentivirus carrying DUX4-fl, DUX4-s or GFP
Experimental: Primary human myoblasts were collected and cultured as previously described (Snider et al., 2010). Primary myoblasts were maintained at or below 70% confluency for proliferation. For differentiation, cells were allowed to reach 95-100% confluency in growth medium. Once confluency was reached, the cells were changed to differentiation medium (F10 media supplemented with 1% horse serum, 10 μg/mL insulin, and 10 μg/mL transferrin, penicillin/streptomycin) and maintained for 4 days. Human RD cells were grown in DMEM in 10% bovine calf serum (Hyclone) and penicillin/streptomycin. The primary myoblasts were transduced with lentivirus carrying DUX-fl, DUX4- or GFP (MOI=15).
Expression microarrays were performed on the transduced cells at 24 hours after transduction as follows. […] Samples were analyzed by Illumina Human Whole Genome microarrays. Probe intensities were corrected, normalized, and summarized by the Lumi package of Bioconductor (Du et al., 2008). Differentially expressed genes were identified by the LIMMA package of Bioconductor (Wettenhall and Smyth, 2004). Gene set enrichment analysis (GSEA) was performed using the Bioconductor GOstats package (Falcon and Gentleman, 2007).

B1: DUX4-s: short splice form of DUX4 (SEQ ID NO:112), keeps the double-homeobox domains, lacks the C-terminal activation domain (protein, listed as Homo sapiens)
chain: MALPTPSDSTLPAEARGRGRRRRLVWTPSQSEALRACFERNPYPGIATRERLAQAIGIPEPRVQIWFQNERSRQLRQHRRESRPWPGRRGPPEGRRKRTAVTGSQTALLLRAFEKDRFPGIAAREELARETGLPESRIQIWFQNRRARHPGQGGRAPAQV
- fc of MGLL (expression array) (Refseq NM_007283.5): −0.003305
- STAT1 expression fc (Refseq NM_007315.2, cultured human skeletal muscle): 0.8235
- fc of LGALS9 (expression array) (Refseq NM_009587.2): 1.706
- FRAT2 expression fc (Refseq NM_012083.2): −0.05118
- fc of CDC42EP4 (expression array) (Refseq NM_012121.4): 0.06633
- CHORDC1 expression fc (Refseq NM_012124.1): 0.1261
- CLDN14 expression fc (Refseq NM_012130.2): −0.3006
- TFIP11 expression fc (Refseq NM_012143.2): 0.1124
- SIRT1 expression fc (Refseq NM_012238.3): 0.2071
- KCNH4 expression fc (Refseq NM_012285.1): −0.07365
- BAMBI expression fc (Refseq NM_012342.2): 0.1101
- fc of TINF2 (expression array) (Refseq NM_012461.1): 0.3861
- CD24 expression fc (Refseq NM_013230.2): −0.3586
- ZNF214 expression fc (Refseq NM_013249.1): 0.166
- TBK1 fc (Refseq NM_013254.2): 0.3572
- MYLIP expression fc (Refseq NM_013262.3): −0.2969
- TRA2A expression fc (Refseq NM_013293.3): −0.1095
- fc of EEF2K (expression array) (Refseq NM_013302.3): −0.5322
- SERTAD1 expression fc (Refseq NM_013376.3): 0.41
- fc of SLC25A24 (expression array) (Refseq NM_013386.3): 1.103
- fc of CLIC4 (expression array) (Refseq NM_013943.1): 1.228
- BZW2 expression fc (Refseq NM_014038.1): −0.4003
- LRP10 fc (Refseq NM_014045.3): 0.4158
- fc of FAM156A (expression array) (Refseq NM_014138.3): −0.1365
- SMARCAL1 fc (Refseq NM_014140.2): 0.01669
- CCDC59 expression fc (Refseq NM_014167.2): 0.2509
- fc of TDRD7 (expression array) (Refseq NM_014290.1): 1.072
- DDX58 expression fc (Refseq NM_014314.3, cultured human skeletal muscle): 0.02114
- PDSS1 expression fc (Refseq NM_014317.3): −0.07459
- AMACR expression fc (Refseq NM_014324.4): 0.08431
- PPP1R15A expression fc (Refseq NM_014330.2): 0.5668
- TSPAN13 expression fc (Refseq NM_014399.3): −0.1469
- APOBEC3C fc (Refseq NM_014508.2): 0.5827
- EVC expression fc (Refseq NM_014556.2, cultured human skeletal muscle): −0.3857
- SCHIP1 expression fc (Refseq NM_014575.2, cultured human skeletal muscle): 0.06263
- SLC40A1 expression fc (Refseq NM_014585.3): −0.4239
- CDR2L fc (Refseq NM_014603.1): −0.203
- TAX1BP3 fc (Refseq NM_014604.2): −0.341
- CTR9 expression fc (Refseq NM_014633.3): −0.0216
- SLC25A44 expression fc (Refseq NM_014655.1): −0.07654
- MTSS1 fc (Refseq NM_014751.4): −0.4145
- LBA1 fc (Refseq NM_014831.1): 0.4958
- KIAA0020 expression fc (Refseq NM_014878.4): 0.01783
- ABLIM3 fc (Refseq NM_014945.2): 0.01495
- WDR47 expression fc (Refseq NM_014969.4): 0.1401
- ARC expression fc (Refseq NM_015193.3): −0.188
- fc of DENND5A (expression array) (Refseq NM_015213.2): 0.07991
- fc of FEM1B (expression array) (Refseq NM_015322.3): 1.026
- fc of PANX1 (expression array) (Refseq NM_015368.3): 1.233
- fc of AASDHPPT (expression array) (Refseq NM_015423.2): −1.246
- MTHFD1L fc (Refseq NM_015440.3): 0.3955
- C2orf32 fc (Refseq NM_015463.1): 0.07813
- PVRL3 expression fc (Refseq NM_015480.1): 0.4473
- NGDN expression fc (Refseq NM_015514.1): 0.4088
- fc of RRM2B (expression array) (Refseq NM_015713.3): 0.6161
- MBD2 expression fc (Refseq NM_015832.3): −0.07679
- fc of MBTPS2 (expression array) (Refseq NM_015884.1): 1.035
- ARS2 expression fc (Refseq NM_015908.4): −0.2002
- GSTK1 fc (Refseq NM_015917.1): 0.0593
- NOP58 expression fc (Refseq NM_015934.3): 0.2243
- CRLF3 expression fc (Refseq NM_015986.2): −0.1449
- fc of TTC15 (expression array) (Refseq NM_016030.5): −0.1193
- ISOC1 expression fc (Refseq NM_016048.1): −0.6187
- MED31 expression fc (Refseq NM_016060.2): 0.3123
- fc of TRPV2 (expression array) (Refseq NM_016113.3): 0.3116
- CERCAM fc (Refseq NM_016174.3): −0.1838
- DBR1 expression fc (Refseq NM_016216.2): 0.2247
- POLR3K expression fc (Refseq NM_016310.2): 0.05873
- HERC5 expression fc (Refseq NM_016323.2, cultured human skeletal muscle): 1.329
- fc of CENPF (expression array) (Refseq NM_016343.3): −1.028
- CWC15 expression fc (Refseq NM_016403.3): 0.09338
- fc of TMEM9 (expression array) (Refseq NM_016456.2): −0.2052
- RAB6B expression fc (Refseq NM_016577.3): 0.007069
- SLC15A3 expression fc (Refseq NM_016582.1, cultured human skeletal muscle): 0.7755
- FKBP11 fc (Refseq NM_016594.1): 0.3006
- ARMCX1 fc (Refseq NM_016608.1): −0.06031
- C8orf55 fc (Refseq NM_016647.2): −0.387
- HOXC13 fc (Refseq NM_017410.2): 0.444
- USP18 expression fc (Refseq NM_017414.3, cultured human skeletal muscle): 0.996
- PARP14 expression fc (Refseq NM_017554.1, cultured human skeletal muscle): 0.5211
- fc of SLC43A3 (expression array) (Refseq NM_017611.2): 0.4376
- NOTCH1 fc (Refseq NM_017617.3): −0.6695
- KIF21A expression fc (Refseq NM_017641.2): 0.01529
- fc of AHI1 (expression array) (Refseq NM_017651.3): −1.054
- SAMD9 expression fc (Refseq NM_017654.2, cultured human skeletal muscle): 1.399
- FAM46C expression fc (Refseq NM_017709.3): −0.1289
- RETSAT expression fc (Refseq NM_017750.2, cultured human skeletal muscle): −0.1731
- LYAR expression fc (Refseq NM_017816.1): 0.000875
- ZSCAN2 expression fc (Refseq NM_017894.4): −0.1999
- HERC6 expression fc (Refseq NM_017912.3, cultured human skeletal muscle): 0.5237
- PID1 fc (Refseq NM_017933.3): 0.314
- ZNHIT6 expression fc (Refseq NM_017953.2): 0.3265
- C14orf102 expression fc (Refseq NM_017970.2): 0.1769
- fc of WIPI1 (expression array) (Refseq NM_017983.4): 0.07989
- RNF31 fc (Refseq NM_017999.4): 0.05142
- FRMD4A fc (Refseq NM_018027.3): −0.5453
- FAM90A1 expression fc (Refseq NM_018088.3): 0.02937
- fc of RBM23 (expression array) (Refseq NM_018107.4): −0.07729
- PNPO fc (Refseq NM_018129.2): −0.02588
- SEC61A2 expression fc (Refseq NM_018144.2): 0.209
- NADSYN1 fc (Refseq NM_018161.4): 0.1182
- TMEM140 expression fc (Refseq NM_018295.2, cultured human skeletal muscle): 1.003
- BRIX1 expression fc (Refseq NM_018321.3): 0.2991
- DRAM1 fc (Refseq NM_018370.2): −0.3649
- LSG1 expression fc (Refseq NM_018385.1): −0.06468
- TBC1D2 fc (Refseq NM_018421.2): 0.2926
- RRN3 expression fc (Refseq NM_018427.3): 0.1072
- ZNF302 fc (Refseq NM_018443.2): −0.01005
- fc of GLT8D1 (expression array) (Refseq NM_018446.2): −0.2715
- BEX1 fc (Refseq NM_018476.3): −0.2346
- SLC35E3 fc (Refseq NM_018656.2): 0.4619
- DEFB103B expression fc (Refseq NM_018661.3): −0.03507
- fc of SULF2 (expression array) (Refseq NM_018837.2): −0.04817
- PDE7B fc (Refseq NM_018945.3): −0.5695
- NANS expression fc (Refseq NM_018946.2): −0.006607
- POLR1B expression fc (Refseq NM_019014.3): −0.1313
- CCNJ expression fc (Refseq NM_019084.2): 0.07916
- fc of HOXA5 (expression array) (Refseq NM_019102.2): −0.1759
- PNO1 expression fc (Refseq NM_020143.2): 0.2485
- KTELC1 fc (Refseq NM_020231.3): 0.1564
- C1orf63 expression fc (Refseq NM_020317.3): −0.139
- ZMIZ1 fc (Refseq NM_020338.2): −0.03787
- TRIM49 expression fc (Refseq NM_020358.2): −0.01703
- LYRM1 fc (Refseq NM_020424.2): 0.01491
- SLC44A2 fc (Refseq NM_020428.2): −0.3457
- PCBP3 fc (Refseq NM_020528.1): 0.2113
- NFKBIA expression fc (Refseq NM_020529.1, cultured human skeletal muscle): 0.2751
- fc of RCN3 (expression array) (Refseq NM_020650.2): −0.2021
- PELI1 expression fc (Refseq NM_020651.2): 0.1483
- fc of FAM62B (expression array) (Refseq NM_020728.1): −1.387
- HECW2 fc (Refseq NM_020760.1): 0.06016
- ZNF319 fc (Refseq NM_020807.1): −0.08179
- OSBPL8 expression fc (Refseq NM_020841.4): 1.055
- USP29 expression fc (Refseq NM_020903.2): −0.09046
- fc of RNF213 (expression array) (Refseq NM_020914.3): 0.6308
- fc of FAM160B1 (expression array) (Refseq NM_020940.3): 0.6282
- fc of IGDCC4 (expression array) (Refseq NM_020962.1): −0.5216
- RFPL1 expression fc (Refseq NM_021026.2): 0.3402
